Test: yeast display, Sf9 membrane polyspecificity reagent, FACS + sequencing; frameworks hold sequencing errors
How it was run: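 After 36–48 hours of galactose induction, yeast (Saccharomyces cerevisiae BJ5465) displaying a synthetic nanobody library were stained at 4 °C for 1 hour with 10% biotinylated, detergent-solubilized Sf9 membrane reagent. Streptavidin microbeads enriched the stained cells before FACS sorting into low and high (top ~1%) gates on anti-HA and streptavidin fluorescence. Each clone's polyreactivity label reflects its gate of origin.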

Sequence | polyreactivity (PSR sort gate)
QVQLVESGGGLVQAGGSLRLSCAASGSTFYYYAMGWYRQAPGKERELVAVISWGGGSTYYADSVKGRFTISRDNAKNTVYLQMNSLKPEDTAVYYCAAVYDEYQTSHEYDYWGQGTQVTVSS | low polyreactivity
QVQLVESGGGLVQAGGSLRLSCAASGFTFLYNAMGWYRQAPGKERELVAAIDSGGNTNYADSVKGRFTISRDNAKITVYLQLNSLKPEDTAVYYCAADVVSGGQGTADYDYWGQGTQVTVSS | low polyreactivity
QVQLVESGGGLVQAGGSLRLSCAASGSIFAKNAMGWYRQAPGKERELVAAIDLNGGSTYYADSVKGRFTISRDNAKNTVYLQMNSLKPEDTAVYYCADYYGHSSVIRSSPEYDSWGQGTQVTVSS | low polyreactivity
HVQLVESGGGLVEAGGSLRLSCAASGYISYVNAMGWYRQAPGKERELVATISIRGGRTYYADSVKGRFTISRDNAKNTVYLQMNSLKPEDTAVYYCNVRRAYYRRGPYYSTYYYWGQGTQVTVSS | high polyreactivity
QVQLVESGGGLVQAAGSLRLSCAASGYTFGYYAMGWYRQAPGKERELVAAINWSGGSTYYADSVKGRFTISRDNEKNSVYLQMYSLKPEDTAVYYCAAQSRSPGYYYWGQGTQVTVSS | high polyreactivity
QVQLVESGGGLVQAGGSLRLSCAASGSTFLRNAMGWYRQAPGKERELVATISRTGGTTYYADSVKGRFTISRDNAKTTVYLQMNSLKPEDTAVYYCAAYSKYGQHYDYWGQGTQVTVSS | high polyreactivity
QVQLVESGGGLVQAGGSLRLSCAASGSTFYRNAMGWYRQAPGKERELVAGISRRGGSTYYADSVKGRFTISRDNAKNTVYLQMNSLKPEDTAVYYCNADYPGIPHNDYWGQGTQVTVSS | low polyreactivity
QVQLVESGGGLVQAGGSLRLSCAASGLTFVEYAMGWYRQAPGKEREFVAAIRSRGGSTYYADSVKGRFTISRDNAKNTVYLQMNSLKPEDTAVYYCTADGYFWGQGTQVTVSS | low polyreactivity
QVQLVESGGGLVQAGGSLRLSCASSGSIFFLYTMGWYRQAPGKERELVAAIDSGGSTNYADSVKGRFTISRDNAKNTVYLQMNSLKPEDTAVYYCNADGGYYYPYRGYHKYYYWGQGTQVTVSS | low polyreactivity
QVQLVESRGGIVQAGGSLRLISAASGRTFGWNAKGWYRQERGKERELVAAISLRGTSTYYADSVKGRFTISRDNAKNTVYLQMNSLKPEDTAVYYCNTLVYVPYHEDYWGQGTQVTVSS | high polyreactivity
QVQLVESGGGLVQAGGSLRLSCAASGRIVRYYTMGWYRQAPGKEREFVAAITLSGGRTYYADSVKGRFTISRDNAKNTVYLQMNSLKPEDTAVYYCAKRYVWGDKRYWQGYDYWGQGTQVSVSS | high polyreactivity
QVQLVESGGGLVQAGGSLRLSCAASGRIFVIYAMGWNRQAPGKERELVASITDGTITNYADSVKGRFTISRDNAKNTVYLQMNSLKPEDTAVYYCAAGTQAHAYVVRPIEMDYWGQGTQVTVSS | low polyreactivity
QVQLVESGGGLVQAGGSLRLSCDASGRIFRYNSMGWYRQAPGKEREFVAAITWRGGSTYYADSVKGRFTISRDNAKYNVYFQMNSLKPEDTAVYYCATRSPFGAAYEYGYWGQGTQVTVSS | high polyreactivity
QVQLVESGGGIVQAGGSLRLSCAATGFIFDQNAMAWYIQAPGKERELVAAISKRGGSTYYADSVKGRFTISRDNAKNTVYLQMNSLKREDTAVYYGATRSWGPYYYGYNHWGQGTQVTVSS | high polyreactivity
QVQLVESGGGLVQAGGSLRLSCAASGSIVNYYAMGWYRPAPGKERELVAAITSGGSTYYADSVKGRFTISRDNAKNTVYLQMNSLKAEDTAVYYCNKAFPYIYDYWGQGTQVTVSS | low polyreactivity
QVQLVESVGGLDQAGGSLRLSCAASGFTFDINTMGWYRQEPGKERELVAAITYSGGSTYYADSVKGRFTISRDNAKNTVYLQMNSLKPEDTAVYYCATTWYFVASWYVAIYDYWGQGTQVTVSS | low polyreactivity
QVQLEESGGGLVQAGGSLRFSCAASGSTFLHYAMGWYRPAPGQERALVAAITWSGGSTYYADSVKGRFTISRDNAKNTVSLQMNSLKPEDTAVYYCAADLTYLYDYHYDYWGQGTQVTVSS | low polyreactivity
QVQLVETGGGLVQAGGSLRLSCAASGSILYYKPMGWYRQAPGKERELVASISLTGGSTTYADSVKGRFTISRDNAKNTVYLQMNSLKPEDTAVYYCNATQYPAADRSTNNYGGGFDSWGQGTQVTVSS | low polyreactivity
QVQLVESGGGLVQAGGSLRLSCAASGSTFRYYAMGWYRQAPGKERELVAAITQSGGITYYADSVKGRFTISRDNANNTVYLQMNSLKPEDTAVYFCAKRYYVDYDYWGQGTQVTVSS | low polyreactivity
QVQLVESGGGLVQAGGSLRISCAASVSTFDINTMGWYRQAPGKEREFVAAITDSDDSTYYADSVKGRFTISRDNAKNTVYLQMNSLKPEDSAVYYCAADRSHAYYRKNRVDYWGQGTQVTVSS | low polyreactivity
QVQLVESGGGLVQAGGSLRLSCAASGFTFSYYAMGWYRQAPGKERELVASISRSGNTYYADSVKGRFTISRDNAKNTFYLQMNSLKPEDTAVYYCAAKRKSYYSYNFDYWGQGTQVTVSS | high polyreactivity
